Earlier results on one substance are cited in PMC11281341.

For this data set, the target named is HIV-1 capsid protein (CA) CA (Human immunodeficiency virus 1) (UniProt O93182).
Sequence of HIV-1 capsid protein (CA) CA (Human immunodeficiency virus 1) (O93182 133-363): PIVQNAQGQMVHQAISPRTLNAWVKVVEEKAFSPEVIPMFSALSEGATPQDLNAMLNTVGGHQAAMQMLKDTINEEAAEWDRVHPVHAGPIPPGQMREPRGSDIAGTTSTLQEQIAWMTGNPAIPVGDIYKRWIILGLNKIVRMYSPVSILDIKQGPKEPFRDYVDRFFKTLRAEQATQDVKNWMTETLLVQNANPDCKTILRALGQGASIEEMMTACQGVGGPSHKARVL

Sequence of TRIM5alpha SPRY (Q0PF16 283-497): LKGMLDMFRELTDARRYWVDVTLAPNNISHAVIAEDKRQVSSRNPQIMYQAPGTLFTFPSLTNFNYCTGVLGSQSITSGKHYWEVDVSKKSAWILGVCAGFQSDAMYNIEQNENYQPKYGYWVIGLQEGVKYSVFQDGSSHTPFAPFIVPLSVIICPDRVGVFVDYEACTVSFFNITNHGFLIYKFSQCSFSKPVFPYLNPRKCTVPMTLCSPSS

One may read the Kd as the equilibrium constant for the complex coming apart. Consider TRIM5alpha SPRY (from UniProt Q0PF16), for which the Kd is over 1000 µM.
